# Laboratory results taken from IntAct's records for PubMed 30323948.
# B1: Subversion of eukaryotic traffic protein A (Legionella pneumophila subsp. pneumophila), Q5ZU30 (parent)
# chain: MYKIYSYLGWRIDMKTENLPQAGQEAQIDKKIHFIWVGHIMPQKNIQVVSEWAEKNPGYETIIWVDKKIAPAKELDLFILDMKSKGITVKDINEEGVCRDSIRHELDQESPNYGMVSDMLRLNILAAEGGIYLDSDILCSAPFPDEIYAPFGFLLSPWSQGANNTLCNDIILCSKGNQIIQQLADAIEQSYIARDSFEFTHEYASMKETKGERIAKTLGVTGPGFLFHQLKKMGILNDKSEMEAIHWELQDQRYLIDGSVKEPDYFYVPQNNTNDASWVPSIKRPGIENMSFQERLENAVQLIAFDIQKTGLFNLDHYANELKVKQNSWCIAAETSPELKPDSYLLIRPRDKTGEWTLYYVDEDKKLNPVTLPVIKGAIKLSEVSDPLRKFHTLLSQVSDPVNPTAHELKQIGRALIELKPRQDEWHCKNKWSGAEEIAQELWQRITSNETLRAQIKQCFTQFESLKPRVAELGLTRASGAGTEVEAHESTVKEQEIISQNTVGEEGTKEKNSVQLASENSSDEKIKTAHDLIDEIIQDVIQLDGKLGLLGGNTRQLEDGRVINIPNGAAMIFDDYKKYKQGELTAESALESMIKIAKLSNQLNRHTFFNQRQPETGQFYKKVAAIDLQTTIAAEYDNNHGLRI
# Variants of: B1
# Conditions: with rab1a_human RAB1A
row,Variant,effect of a mutation on the interaction
1,D134A;D136A,disrupting interaction

# Variants of: B1
# Conditions: with rab7a_human RAB7A
row,Variant,effect of a mutation on the interaction
1,D134A;D136A,disrupting interaction
